# Data reported in patent US20250122299A1 (published 2025).
# Biological target: human CD28 (human, UniProt P10747 19-220)
# Assay: -; scFv VHVL, 1+1 Fab-scFv-Fc format
row,Binder,Kd
1,"H1.1_L1.71 (antibody, V domains shown) VH: EVQLLESGGGLVQPGGSLRLSCAASGFTFSSYYMSWVRQAPGKGLEWVSTISGSGDSTYYADSVKGRFTISRDNSKNTLYLQMNSLRAEDTAVYYCAKSGPGLRQVGFDYWGQGTLVTVSS VL: not shown",96 nM
2,"H1.1_L1 (antibody, V domains shown) VH: EVQLLESGGGLVQPGGSLRLSCAASGFTFSSYYMSWVRQAPGKGLEWVSTISGSGDSTYYADSVKGRFTISRDNSKNTLYLQMNSLRAEDTAVYYCAKSGPGLRQVGFDYWGQGTLVTVSS VL: not shown",600 nM

# The next lines start with the values.
row,Kd,Binder
1,180 nM,"H1_L1.71 (antibody, V domains shown) VH: EVQLLESGGGLVQPGGSLRLSCAASGFTFSSYAMSWVRQAPGKGLEWVSTISGSGDSTYYADSVKGRFTISRDNSKNTLYLQMNSLRAEDTAVYYCAKSGPGLRQVGFDYWGQGTLVTVSS VL: not shown"
2,1000 nM,"H1L1 (antibody, V domains shown) VH: EVQLLESGGGLVQPGGSLRLSCAASGFTFSSYAMSWVRQAPGKGLEWVSTISGSGDSTYYADSVKGRFTISRDNSKNTLYLQMNSLRAEDTAVYYCAKSGPGLRQVGFDYWGQGTLVTVSS VL: not shown"
